Measured values published in US20260078182A1.

Biological target: CCR4 (human) (UniProt P51679)
Experiment: cell-based or functional assay

UniProt P51679, sequence (P51679 whole entry): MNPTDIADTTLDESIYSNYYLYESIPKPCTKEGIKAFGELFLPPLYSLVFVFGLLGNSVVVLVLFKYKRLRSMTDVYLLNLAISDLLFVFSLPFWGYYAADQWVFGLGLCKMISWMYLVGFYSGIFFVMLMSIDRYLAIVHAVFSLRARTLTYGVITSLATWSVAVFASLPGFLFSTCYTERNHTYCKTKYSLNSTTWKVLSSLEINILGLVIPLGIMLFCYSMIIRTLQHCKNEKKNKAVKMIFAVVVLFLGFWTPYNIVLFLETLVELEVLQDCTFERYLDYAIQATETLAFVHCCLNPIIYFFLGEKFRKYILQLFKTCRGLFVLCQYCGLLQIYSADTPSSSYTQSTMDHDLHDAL

## mogamulizumab (antibody)
  EC50 (pM), cytotoxicity of the negative control antibody against MT-2 cells expressing CCR4 with T-LAK effector cells (calcein release): 1140 pM
  Emax (%), cytotoxicity of the negative control antibody against MT-2 cells expressing CCR4 with T-LAK effector cells (calcein release): 8.5%
